Source: paper PMC6744581 (2019)

B1: GFP-RhoBTB1 [human] / myc-ROCK1^1–727 [human] (parent complex)
chain 1: MDADMDYERPNVETIKCVVVGDNAVGKTRLICARACNTTLTQYQLLATHVPTVWAIDQYRVCQEVLERSRDVVDEVSVSLRLWDTFGDHHKDRRFAYGRSDVVVLCFSIANPNSLNHVKSMWYPEIKHFCPRTPVILVGCQLDLRYADLEAVNRARRPLARPIKRGDILPPEKGREVAKELGLPYYETSVFDQFGIKDVFDNAIRAALISRRHLQFWKSHLKKVQKPLLQAPFLPPKAPPPVIKIPECPSMGTNEAACLLDNPLCADVLFILQDQEHIFAHRIYLATSSSKFYDLFLMECEESPNGSEGACEKEKQSRDFQGRILSVDPEEEREEGPPRIPQADQWKSSNKSLVEALGLEAEGAVPETQTLTGWSKGFIGMHREMQVNPISKRMGPMTVVRMDASVQPGPFRTLLQFLYTGQLDEKEKDLVGLAQIAEVLEMFDLRMMVENIMNKEAFMNQEITKAFHVRKANRIKECLSKGTFSDVTFKLDDGAISAHKPLLICSCEWMAAMFGGSFVESANSEVYLPNINKISMQAVLDYLYTKQLSPNLDLDPLELIALANRFCLPHLVALAEQHAVQELTKAATSGVGIDGEVLSYLELAQFHNAHQLAAWCLHHICTNYNSVCSKFRKEIKSKSADNQEYFERHRWPPVWYLKEEDHYQRVKREREKEDIALNKHRSRRKWCFWNSSPAVA
chain 2: MSTGDSFETRFEKMDNLLRDPKSEVNSDCLLDGLDALVYDLDFPALRKNKNIDNFLSRYKDTINKIRDLRMKAEDYEVVKVIGRGAFGEVQLVRHKSTRKVYAMKLLSKFEMIKRSDSAFFWEERDIMAFANSPWVVQLFYAFQDDRYLYMVMEYMPGGDLVNLMSNYDVPEKWARFYTAEVVLALDAIHSMGFIHRDVKPDNMLLDKSGHLKLADFGTCMKMNKEGMVRCDTAVGTPDYISPEVLKSQGGDGYYGRECDWWSVGVFLYEMLVGDTPFYADSLVGTYSKIMNHKNSLTFPDDNDISKEAKNLICAFLTDREVRLGRNGVEEIKRHLFFKNDQWAWETLRDTVAPVVPDLSSDIDTSNFDDLEEDKGEEETFPIPKAFVGNQLPFVGFTYYSNRRYLSSANPNDNRTSSNADKSLQESLQKTIYKLEEQLHNEMQLKDEMEQKCRTSNIKLDKIMKELDEEGNQRRNLESTVSQIEKEKMLLQHRINEYQRKAEQENEKRRNVENEVSTLKDQLEDLKKVSQNSQLANEKLSQLQKQLEEANDLLRTESDTAVRLRKSHTEMSKSISQLESLNRELQERNRILENSKSQTDKDYYQLQAILEAERRDRGHDSEMIGDLQARITSLQEEVKHLKHNLEKVEGERKEAQDMLNHSEKEKNNLEIDLNYKLKSLQQRLEQEVNEHKVTKARLTDKHQSIEEAKSVAMCEMEKKLKEEREAR

Variants of: B1
Experiment: co-immunoprecipitation (GFP-trap) with band density quantification; COS7 cells, 24 h after transfection; three independent experiments; parent: 1.1; read off a plot

Variant	response
chain 1 R60A, chain 1 C62A, chain 1 E64A	~1.1 relative value myc IP/GFP IP
chain 1 E64A	~1.5 relative value myc IP/GFP IP
chain 1 E64A, chain 1 K197A, chain 1 D198A	~1.2 relative value myc IP/GFP IP
chain 1 E64A, chain 1 K197A	~2 relative value myc IP/GFP IP

Variants of: B1
Experiment: co-immunoprecipitation (GFP-trap) with band density quantification; COS7 cells, 24 h after transfection; five independent experiments; parent: 0.52; read off a plot

Variant	response
chain 1 D198A	~0.63 relative value myc IP/GFP IP
chain 1 E64A, chain 1 K197A	~1.4 relative value myc IP/GFP IP
chain 1 K197A	~0.48 relative value myc IP/GFP IP
